Reference: patent US20260274985A1 (MYTHIC THERAPEUTICS, published 2026)

T1: Human TROP2 Protein, His Tag (Acro Biosystems) (human, UniProt P09758 27-274)
T1 construct: Soluble analyte of the Octet assay; also called TACSTD2; not shown: His tag
T1 sequence (looked up): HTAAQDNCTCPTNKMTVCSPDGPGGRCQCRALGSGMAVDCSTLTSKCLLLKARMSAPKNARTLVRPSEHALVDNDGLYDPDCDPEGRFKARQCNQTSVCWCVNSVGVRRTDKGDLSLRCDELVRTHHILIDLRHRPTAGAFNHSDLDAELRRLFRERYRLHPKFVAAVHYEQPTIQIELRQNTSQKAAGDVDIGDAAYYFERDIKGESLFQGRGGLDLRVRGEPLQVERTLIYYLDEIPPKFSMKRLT


Target: T1, Human TROP2 Protein, His Tag (Acro …)
Test: BLI (Octet)

Row | Binder | binding result
1 | MYT13170 (antibody, V domains shown, Sacituzumab HC-LC pairing variant; IgG) VH: QVQLQQSGSELKKPGASVKVSCKASGYTFTNYGMNWVKQAPGQGLKWMGWINTYTGEPTHTDDFKGRFAFSLDTSVSTAYLQISSLKADDTAVYFCARGGFGSSYWYFDVWGQGSLVTVSS VL: DIQLTQSPSSLSASVGDRVSITCKASQDVSIAHAWYQQKPGKAPKLLIYSASYRYTGVPDRFSGSGSGTDFTLTISSLQPEDFAVYYCQQHYITPLTFGAGTKVEIK | binds
2 | MYT13172 (antibody, V domains shown, Sacituzumab HC-LC pairing variant; IgG) VH: QVQLQQSGSELKKPGASVKVSCKASGYTFTNYGMNWVKQAPGQGLKWMGWINTYTGEPTYTDHFKGRFAFSLDTSVSTAYLQISSLKADDTAVYFCARGGFGSSYWYFDVWGQGSLVTVSS VL: DIQLTQSPSSLSASVGDRVSITCKASQDVSIAHAWYQQKPGKAPKLLIYSASYRYTGVPDRFSGSGSGTDFTLTISSLQPEDFAVYYCQQHYITPLTFGAGTKVEIK | binds
3 | MYT13177 (antibody, V domains shown, Sacituzumab HC-LC pairing variant; IgG) VH: QVQLQQSGSELKKPGASVKVSCKASGYTFTNYHMNWVKQAPGQGLKWMGWINTYTGEPTYTDDFKGRFAFSLDTSVSTAYLQISSLKADDTAVYFCARGGFGSSYWYFDVWGQGSLVTVSS VL: DIQLTQSPSSLSASVGDRVSITCKASQDVSIAVAWYQQKPGKAPKLLIYSHSYRYTGVPDRFSGSGSGTDFTLTISSLQPEDFAVYYCQQHYITPLTFGAGTKVEIK | binds
4 | MYT13180 (antibody, V domains shown, Sacituzumab HC-LC pairing variant; IgG) VH: QVQLQQSGSELKKPGASVKVSCKASGYTFTNYGMNWVKQAPGQGLKWMGWINTYTGEPTYTDHFKGRFAFSLDTSVSTAYLQISSLKADDTAVYFCARGGFGSSYWYFDVWGQGSLVTVSS VL: DIQLTQSPSSLSASVGDRVSITCKASQDVSIAVAWYQQKPGKAPKLLIYSHSYRYTGVPDRFSGSGSGTDFTLTISSLQPEDFAVYYCQQHYITPLTFGAGTKVEIK | binds
5 | MYT13183 (antibody, V domains shown, Sacituzumab HC-LC pairing variant; IgG) VH: QVQLQQSGSELKKPGASVKVSCKASGYTFTNYGMNWVKQAPGQGLKWMGWINTYTGEPTYTDDFKHRFAFSLDTSVSTAYLQISSLKADDTAVYFCARGGFGSSYWYFDVWGQGSLVTVSS VL: DIQLTQSPSSLSASVGDRVSITCKASQDVSIAVAWYQQKPGKAPKLLIYSHSYRYTGVPDRFSGSGSGTDFTLTISSLQPEDFAVYYCQQHYITPLTFGAGTKVEIK | binds
6 | MYT13181 (antibody, V domains shown, Sacituzumab HC-LC pairing variant; IgG) VH: QVQLQQSGSELKKPGASVKVSCKASGYTFTNYGMNWVKQAPGQGLKWMGWINTYTGEPTYTDDHKGRFAFSLDTSVSTAYLQISSLKADDTAVYFCARGGFGSSYWYFDVWGQGSLVTVSS VL: DIQLTQSPSSLSASVGDRVSITCKASQDVSIAVAWYQQKPGKAPKLLIYSHSYRYTGVPDRFSGSGSGTDFTLTISSLQPEDFAVYYCQQHYITPLTFGAGTKVEIK | binds
7 | MYT13175 (antibody, V domains shown, Sacituzumab HC-LC pairing variant; IgG) VH: QVQLQQSGSELKKPGASVKVSCKASGYTFTNYGMNWVKQAPGQGLKWMGWINTYTGEPTYTDDFKHRFAFSLDTSVSTAYLQISSLKADDTAVYFCARGGFGSSYWYFDVWGQGSLVTVSS VL: DIQLTQSPSSLSASVGDRVSITCKASQDVSIAHAWYQQKPGKAPKLLIYSASYRYTGVPDRFSGSGSGTDFTLTISSLQPEDFAVYYCQQHYITPLTFGAGTKVEIK | binds
8 | MYT13173 (antibody, V domains shown, Sacituzumab HC-LC pairing variant; IgG) VH: QVQLQQSGSELKKPGASVKVSCKASGYTFTNYGMNWVKQAPGQGLKWMGWINTYTGEPTYTDDHKGRFAFSLDTSVSTAYLQISSLKADDTAVYFCARGGFGSSYWYFDVWGQGSLVTVSS VL: DIQLTQSPSSLSASVGDRVSITCKASQDVSIAHAWYQQKPGKAPKLLIYSASYRYTGVPDRFSGSGSGTDFTLTISSLQPEDFAVYYCQQHYITPLTFGAGTKVEIK | binds
9 | MYT13171 (antibody, V domains shown, Sacituzumab HC-LC pairing variant; IgG) VH: QVQLQQSGSELKKPGASVKVSCKASGYTFTNYGMNWVKQAPGQGLKWMGWINTYTGEPTYTHDFKGRFAFSLDTSVSTAYLQISSLKADDTAVYFCARGGFGSSYWYFDVWGQGSLVTVSS VL: DIQLTQSPSSLSASVGDRVSITCKASQDVSIAHAWYQQKPGKAPKLLIYSASYRYTGVPDRFSGSGSGTDFTLTISSLQPEDFAVYYCQQHYITPLTFGAGTKVEIK | binds
10 | MYT13185 (antibody, V domains shown, Sacituzumab HC-LC pairing variant; IgG) VH: QVQLQQSGSELKKPGASVKVSCKASGYTFTNYHMNWVKQAPGQGLKWMGWINTYTGEPTYTDDFKGRFAFSLDTSVSTAYLQISSLKADDTAVYFCARGGFGSSYWYFDVWGQGSLVTVSS VL: DIQLTQSPSSLSASVGDRVSITCKASQDVSIAVAWYQQKPGKAPKLLIYSAHYRYTGVPDRFSGSGSGTDFTLTISSLQPEDFAVYYCQQHYITPLTFGAGTKVEIK | binds
11 | MYT13174 (antibody, V domains shown, Sacituzumab HC-LC pairing variant; IgG) VH: QVQLQQSGSELKKPGASVKVSCKASGYTFTNYGMNWVKQAPGQGLKWMGWINTYTGEPTYTDDFHGRFAFSLDTSVSTAYLQISSLKADDTAVYFCARGGFGSSYWYFDVWGQGSLVTVSS VL: DIQLTQSPSSLSASVGDRVSITCKASQDVSIAHAWYQQKPGKAPKLLIYSASYRYTGVPDRFSGSGSGTDFTLTISSLQPEDFAVYYCQQHYITPLTFGAGTKVEIK | binds
12 | MYT13182 (antibody, V domains shown, Sacituzumab HC-LC pairing variant; IgG) VH: QVQLQQSGSELKKPGASVKVSCKASGYTFTNYGMNWVKQAPGQGLKWMGWINTYTGEPTYTDDFHGRFAFSLDTSVSTAYLQISSLKADDTAVYFCARGGFGSSYWYFDVWGQGSLVTVSS VL: DIQLTQSPSSLSASVGDRVSITCKASQDVSIAVAWYQQKPGKAPKLLIYSHSYRYTGVPDRFSGSGSGTDFTLTISSLQPEDFAVYYCQQHYITPLTFGAGTKVEIK | binds
13 | MYT13184 (antibody, V domains shown, Sacituzumab HC-LC pairing variant; IgG) VH: QVQLQQSGSELKKPGASVKVSCKASGYTFTNHGMNWVKQAPGQGLKWMGWINTYTGEPTYTDDFKGRFAFSLDTSVSTAYLQISSLKADDTAVYFCARGGFGSSYWYFDVWGQGSLVTVSS VL: DIQLTQSPSSLSASVGDRVSITCKASQDVSIAVAWYQQKPGKAPKLLIYSAHYRYTGVPDRFSGSGSGTDFTLTISSLQPEDFAVYYCQQHYITPLTFGAGTKVEIK | binds
14 | MYT13178 (antibody, V domains shown, Sacituzumab HC-LC pairing variant; IgG) VH: QVQLQQSGSELKKPGASVKVSCKASGYTFTNYGMNWVKQAPGQGLKWMGWINTYTGEPTHTDDFKGRFAFSLDTSVSTAYLQISSLKADDTAVYFCARGGFGSSYWYFDVWGQGSLVTVSS VL: DIQLTQSPSSLSASVGDRVSITCKASQDVSIAVAWYQQKPGKAPKLLIYSHSYRYTGVPDRFSGSGSGTDFTLTISSLQPEDFAVYYCQQHYITPLTFGAGTKVEIK | binds
15 | MYT13179 (antibody, V domains shown, Sacituzumab HC-LC pairing variant; IgG) VH: QVQLQQSGSELKKPGASVKVSCKASGYTFTNYGMNWVKQAPGQGLKWMGWINTYTGEPTYTHDFKGRFAFSLDTSVSTAYLQISSLKADDTAVYFCARGGFGSSYWYFDVWGQGSLVTVSS VL: DIQLTQSPSSLSASVGDRVSITCKASQDVSIAVAWYQQKPGKAPKLLIYSHSYRYTGVPDRFSGSGSGTDFTLTISSLQPEDFAVYYCQQHYITPLTFGAGTKVEIK | binds
